For the assay, the target named is SARS-CoV-2 RBD protein (Severe acute respiratory syndrome …, UniProt P0DTC2). Description: ELISA. (An ELISA detects its analyte on a solid surface through an enzyme-linked reagent.)

B1: XMA09 (antibody, V domains shown)
VH: QVQLVQSGAEVKKPGSSVKVSCKASGGTFSSFAISWVRQAPGQGLEWMGGIIPIYGTANYAQKFQGRVTITADESTSTAYMDLSSLRSEDTAVYYCARDGSSTYYPHNWFDPWGQGTLVTVSS
VL: QSVLTQPPSVSGAPGQRVTISCTGSSSNIGSGYDVHWYQQLPGTAPKLLIYGNSNRPSGVPDRFSGSKSGTSASLAITGLQAEDEADYYCQSYDSSLSGVFGTGTKVTVL
Consider B1, for which the binding result is given as “binds”.

B2: XMA01 (antibody, V domains shown)
VH: EVQLVESGGGLVQPGGSLRLSCSASGFTFSSYAMHWVRQAPGKGLEYVSSISSNGGSTYYADSVKGRFTISRDNSKNTLYLQMSSLRVEDAAVYYCVKHYQQQLLWGGPDVWGQGTTVTVSS
VL: DIQMTQSPVSLSASVGDRVTITCRASQSISTWLAWYQQKPGKAPKLLIYETSSLESGVPSRFSGSGSGTEFTLTISSLQPDDFATYYCQQFNSYPWTFGQGTKVEIK
In the case of B2, the binding result is “binds”.

B3: XMA04 (antibody, V domains shown)
VH: EVQLVESGGGVVQPGRSLRLSCAASGFTFRTYAMHWVRQAPGKGLEWVAVMWNDGSNKYYADSVKGRFTISRDNSKNTLYLEMNSLRAEDTAVYYCAREGVAAAGSSSDAFDIWGQGTMVTVSS
VL: DIQMTQSPSSLSASVGDRVTITCRASQSISNFLNWYQQKPGKAPKLLIYAASSLQSGVPSRFSGSGSGTDFTLTISSLQPEDFATYYCQQSYSTLYSFGQGTKLEIK
As for B3, the binding result is recorded as “binds”.
